Here are results for 3 proteins from article PMC8669218 (Acta Pharmacologica Sinica, 2021).

Positions count from the first letter of the chain named.

Sequences and labels used below:
B1: extracellular domain of human DPP4 (residues 39-766), K122D (domain or fragment)
chain: SRKTYTLTDYLKNTYRLKLYSLRWISDHEYLYKQENNILVFNAEYGNSSVFLENSTFDEFGHSINDYSISPDGQFILLEYNYVDQWRHSYTASYDIYDLNKRQLITEERIPNNTQWVTWSPVGHKLAYVWNNDIYVKIEPNLPSYRITWTGKEDIIYNGITDWVYEEEVFSAYSALWWSPNGTFLAYAQFNDTEVPLIEYSFYSDESLQYPKTVRVPYPKAGAVNPTVKFFVVNTDSLSSVTNATSIQITAPASMLIGDHYLCDVTWATQERISLQWLRRIQNYSVMDICDYDESSGRWNCLVARQHIEMSTTGWVGRFRPSEPHFTLDGNSFYKIISNEEGYRHICYFQIDKKDCTFITKGTWEVIGIEALTSDYLYYISNEYKGMPGGRNLYKIQLSDYTKVTCLSCELNPERCQYYSVSFSKEAKYYQLRCSGPGLPLYTLHSSVNDKGLRVLEDNSALDKMLQNVQMPSKKLDFIILNETKFWYQMILPPHFDKSKKYPLLLDVYAGPCSQKADTVFRLNWATYLASTENIIVASFDGRGSGYQGDKIMHAINRRLGTFEVEDQIEAARQFSKMGFVDNKRIAIWGWSYGGYVTSMVLGSGSGVFKCGIAVAPVSRWEYYDSVYTERYMGLPTPEDNLDHYRNSTVMSRAENFKQVEYLLIHGTADDNVHFQQSAQISKALVDVGVDFQAMWYTDEDHGIASSTAHQHIYTHMSHFIKQCFSLP
modifications: glycosylated (sites not given)
B2: extracellular domain of human DPP4 (residues 39-766), P257A (domain or fragment)
chain: B1 chain with D84K, P219A
modifications: glycosylated (sites not given)
B3: extracellular domain of human DPP4 (residues 39-766), D243A (domain or fragment)
chain: B1 chain with D84K, D205A
modifications: glycosylated (sites not given)

This series concerns the molecule itself. Briefly: nonreducing SDS-PAGE.
Consider B1, for which the binding result is reported as “binds”.

Take B2: the binding result is “binds”.

Turning to B3, the binding result was “binds”.
